Measurements reported in patent US20030203406.

Experiments:
GGG tripeptide = target: T1, GGG tripeptide
T1 chain: GGG

IGG tripeptide = target: T2, IGG tripeptide
T2 chain: IGG

[1] = target: T3, MAS tripeptide (Met-Ala-Ser)
T3 chain: MAS

MEG tripeptide = target: T4, MEG tripeptide
T4 chain: MEG

MGG tripeptide = target: T5, MGG tripeptide
T5 chain: MGG

B1: recombinant human MetAP-3 purified from E. coli after thrombin cleavage of the NusA-6xHis tag (protein)
chain: SSPLNHIYLHKQSSSQQRRNFFFRRQRDISHSIVLPAAVSSAHPVPKHIKKPDYVTTGIVPDWGDSIEVKNEDQIQGLHQACQLARHVLLLAGKSLKVDMTTEEIDALVHREIISHNAYPSPLGYGGFPKSVCTSVNNVLCHGIPDSRPLQDGDIINIDVTVYYNGYHGDTSETFLVGNVDECGKKLVEVARRCRDEAIAACRAGAPFSVIGNTISHITHQNGFQVCPHFVGHGIGSYFHGHPEIWHHANDSDLPMEEGMAFTIEPIITEGSPEFKVLEDAWTVVSLDNQRSAQFEHTVLITSRGAQILTKLPHEA
GGG tripeptide
  Cleaved: No
  Vmax (Abs × 1000/min) (Abs × 1000/min): 0.7
IGG tripeptide
  Cleaved: No
  Vmax (Abs × 1000/min) (Abs × 1000/min): 3.1
[1]
  Cleaved: Yes
  Km: 600 µM
  Vmax (Abs × 1000/min) (Abs × 1000/min): 70
  kcat: 0.06 s⁻¹
MEG tripeptide
  Cleaved: No
  Vmax (Abs × 1000/min) (Abs × 1000/min): 1.1
MGG tripeptide
  Cleaved: Yes
  Vmax (Abs × 1000/min) (Abs × 1000/min): 134

B2: recombinant human MetAP-2 expressed in Sf9 insect cells (protein)
chain: AGVEEVAASGSHLNGDLDPDDREEGAASTAEEAAKKKRRKKKKSKGPSAAGEQEPDKESGASVDEVARQLERSALEDKERDEDDEDGDGDGDGATGKKKKKKKKKRGPKVQTDPPSVPICDLYPNGVFPKGQECEYPPTQDGRTAAWRTTSEEKKALDQASEEIWNDFREAAEAHRQVRKYVMSWIKPGMTMIEICEKLEDCSRKLIKENGLNAGLAFPTGCSLNNCAAHYTPNAGDTTVLQYDDICKIDFGTHISGRIIDCAFTVTFNPKYDTLLKAVKDATNTGIKCAGIDVRLCDVGEAIQEVMESYEVEIDGKTYQVKPIRNLNGHSIGQYRIHAGKTVPIVKGGEATRMEEGEVYAIETFGSTGKGVVHDDMECSHYMKNFDVGHVPIRLPRTKHLLNVINENFGTLAFCRRWLDRLGESKYLMALKNLCDLGIVDPYPPLCDIKGSYTAQFEHTILLRPTCKEVVSRGDDY
[1]
  Km: 300 µM
  kcat: 2.3 s⁻¹
